Source: article PMC7954794, “Protein context shapes the specificity of SH3 domain-mediated interactions in vivo” (Nature Communications, 2021)

Tested on: PPIs identified as affected by the SH3 domain deletions
Assay: Liquid DHFR-PCA low-throughput validation of PPIs affected by SH3 deletion (Fig. S1D-E)
Type: cell-based, Saccharomyces cerevisiae
Settings: label = prey, liquid DHFR-PCA, prey _1 = lost, _2 = gained in screen
Outline: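 Growth at 30 °C was tracked by OD each 15 min over 72 h in agar-free PCA selection medium, starting at 0.1 OD. Cells were diploids selected after mating, first cultured 48 h with NAT and HPH in synthetic complete MSG medium, pH 6.0.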

B1: YIL095W_1 (protein, UniProt P40494 1-810, looked up)
Actin-regulating kinase PRK1: MNTPQISLYEPGTILTVGSHHAKIIKYLTSGGFAQVYTAEISPPDPYSNANIACLKRVIVPHKQGLNTLRAEVDAMKLLRNNKHVVSYIDSHAARSVNGIAYEVFVLMEFCERGGLIDFMNTRLQNRLQESEILEIMSQTVQGITAMHALQPPLIHRDIKIENVLISHDGLYKVCDFGSVSGVIRPPRNTQEFNYVQHDILTNTTAQYRSPEMIDLYRGLPIDEKSDIWALGVFLYKICYYTTPFEKSGEAGILHARYQYPSFPQYSDRLKNLIRLMLMEAPSQRPNICQVLEEVSRLQNKPCPIRNFYLLRAMNQNANTQLAGEPSSTTYVPTQKFIPVQSLQSINQPPNMMPVTHVSTTPNLGTFPISINDNNKTEVTAHAGLQVGSHSNLTSPLMKTKSVPLSDEFASLYYKELHPFQKSQTFKSVESFQSPQRKSMPPLSLTPVNNDIFDRVSAINRPNNYVDSETQTIDNMAVPNLKLSPTITSKSLSSTKEIAAPDNINGSKIVRSLSSKLKKVITGESRGNSPIKSRQNTGDSIRSAFGKLRHGFTGNSVNNSRSASFDNNNVNGNGNNTNRRLVSSSTSSFPKFNSDTKRKEESDKNQRLEKRRSMPPSILSDFDQHERNNSRTGSRDYYRSHSPVKKTQASAKTTSKPTLIPDNGNVNINQEKKESIQRRVHNLLKSSDDPVTYKSASGYGKYTDIGTETSNRHSSVRITPITEEKFKKTLKDGVLDIKTKSNGKDKSRPPRPPPKPLHLRTEIQKIRNFSRLQSKKLPIERISSEATETIVDVNVDDLEADFRKRFPSKV
- Ratio (Deletedscore / WTscore) (bait LSB3): 0.5323

B2: YNL229C_1 (protein, UniProt P23202 2-354, looked up)
Transcriptional regulator URE2: MNNNGNQVSNLSNALRQVNIGNRNSNTTTDQSNINFEFSTGVNNNNNNNSSSNNNNVQNNNSGRNGSQNNDNENNIKNTLEQHRQQQQAFSDMSHVEYSRITKFFQEQPLEGYTLFSHRSAPNGFKVAIVLSELGFHYNTIFLDFNLGEHRAPEFVSVNPNARVPALIDHGMDNLSIWESGAILLHLVNKYYKETGNPLLWSDDLADQSQINAWLFFQTSGHAPMIGQALHFRYFHSQKIASAVERYTDEVRRVYGVVEMALAERREALVMELDTENAAAYSAGTTPMSQSRFFDYPVWLVGDKLTIADLAFVPWNNVVDRIGINIKIEFPEVYKWTKHMMRRPAVIKALRGE
- Ratio (Deletedscore / WTscore) (bait LSB1): 1.043

B3: YML016C_2 (protein, UniProt P26570 2-692, looked up)
Serine/threonine-protein …: GNSSSKSSKKDSHSNSSSRNPRPQVSRTETSHSVKSAKSNKSSRSRRSLPSSSTTNTNSNVPDPSTPSKPNLEVNHQRHSSHTNRYHFPSSSHSHSNSQNELLTTPSSSSTKRPSTSRRSSYNTKAAADLPPSMIQMEPKSPILKTNNSSTHVSKHKSSYSSTYYENALTDDDNDDKDNDISHTKRFSRSSNSRPSSIRSGSVSRRKSDVTHEEPNNGSYSSNNQENYLVQALTRSNSHASSLHSRKSSFGSDGNTAYSTPLNSPGLSKLTDHSGEYFTSNSTSSLNHHSSRDIYPSKHISNDDDIENSSQLSNIHASMENVNDKNNNITDSKKDPNEEFNDIMQSSGNKNAPKKFKKPIDIDETIQKLLDAGYAAKRTKNVCLKNNEILQICIKAREIFLSQPSLLELSPPVKIVGDVHGQYGDLLRLFTKCGFPPSSNYLFLGDYVDRGKQSLETILLLFCYKIKYPENFFLLRGNHECANVTRVYGFYDECKRRCNIKIWKTFIDTFNTLPLAAIVAGKIFCVHGGLSPVLNSMDEIRHVVRPTDVPDFGLINDLLWSDPTDSPNEWEDNERGVSYCYNKVAINKFLNKFGFDLVCRAHMVVEDGYEFFNDRSLVTVFSAPNYCGEFDNWGAVMSVSEGLLCSFELLDPLDSAALKQVMKKGRQERKLANQQQQMMETSITNDNESQQ
- Ratio (Deletedscore / WTscore) (bait ABP1): 1.259
- Ratio (Deletedscore / WTscore) (bait BOI1): 1.203
- Ratio (Deletedscore / WTscore) (bait BZZ1-2): 1.516

B4: YLR144C_1 (protein, UniProt Q12168 1-779, looked up)
Glucan …: MCYSRQAIPPPVPNRPGGTTNRGPPPLPPRANVQPPVCSSENSSKPRENRVAGESLRTPSSSNPLADSQVNSDNIFQSPVLSNLKAPPSVFNKVQHPVPKPNIDDQSVDPLETNKFYTNMLLDDNTQPIWTHPYSIWFSRDPELFGLAANHTLASQRVFDTTTNPPRFYFNPTNIKSFVFKAREFVSSNDIKLEFRDMKHMSMCLLMSLSSSQFIEFPLVQGMGFVTAIYHDLGFELRSAVGFRSLERISVNERYGKYNIQLENNRNWILYLTSPDYSFPQDFQISLLDSNTIISSHKINGLICQLSADSVPSIDMAAGCYPVYCDLSGQTVDEHFTNYRFNYTVAGYSQSGTTLMYALPHHKAAFTPEMQEREIASSLDSTVKGLMTGYLTNSFDMQVQVPQELGFEPVALSLNKKADYSQEKLSKIREAAVQEVQLSDPQQESNIDSMYFSGKILAKYAWILYVTHYILHDENLTKELLSKLTIAMERFISNQQVLPLNYDVSWKGIISSGSSSQDFGNSYYNDHHFHYSYHVITAAIISLVDSDLSGVTNNSWLENNRDWVECLIRDYSGVDNDDPYFPQFRSFDWFNGHSWAKGLFPSGDGKDEESTSEDVNSCYAIKLWGLVTGNSKLTDIANLQLGIMRNVFQSYFLYESNNTVQPKEFIGNKVSGILFENKIDHATYFGMEPQYIHMIHAIPITSASSWVRTPNFVKEEWEEKMQPIIDQVNDGWKGIIMLNMALLDPKFSYDFFSQPDFNRNFLDNGQSLTWSLAYSGAFS
- Ratio (Deletedscore / WTscore) (bait LSB1): 1.001
- Ratio (Deletedscore / WTscore) (bait LSB3): 0.9902
- Ratio (Deletedscore / WTscore) (bait PIN3): 0.9919

B5: YLR166C_1 (protein, UniProt Q06245 1-871, looked up)
Exocyst complex component …: MNSLYELDPKWKKLLKTDNFLGGLTVNEFVQELSKDHRNDVLIDANTKNLPTNEKDQDAIREAIWKQLDPKPYIRTFESTLKELKNLNEETLNKRQYFSEQVATQEVIHSENVIKLSKDLHTTLLTFDKLDDRLTNVTQVVSPLGDKLETAIKKKQNYIQSVELIRRYNDFYSMGKSDIVEQLRLSKNWKLNLKSVKLMKNLLILSSKLETSSIPKTINTKLVIEKYSEMMENELLENFNSAYRENNFTKLNEIAIILNNFNGGVNVIQSFINQHDYFIDTKQIDLENEFENVFIKNVKFKEQLIDFENHSVIIETSMQNLINDVETVIKNESKIVKRVFEEKATHVIQLFIQRVFAQKIEPRFEVLLRNSLSISNLAYVRILHGLFTLFGKFTKSLIDYFQLLEIDDSNQILSTTLEQCFADLFSHYLYDRSKYFGIEKRSLEAILVDMTSKFTVNYDKEINKRVLLDKYKEKLSTNVDAFMHSPRGNTHSRQDSTSRSKLSQFNSFLKTHLDKDHLSLNRTNTLSDSFNNSSSSTQYDVANNSSSLVNSSFTASDIDNSPNSPANYSLNDVDSMLKCVVESTARVMELIPNKAHLYILEILKIMFLGIVDSYMEIALEVAYWKICKVDINKTAGVVNLNFLKFISMSTEILDLLSISIKSIFLPLLNNSPEIKAQIIEMTNSQIQKMEILINIILQETITVISTKFSAILCKQKKKDFVPKSQELLDQDTLPAIEIVNILNLIFEQSSKFLKGKNLQTFLTLIGEELYGLLLSHYSHFQVNSIGGVVVTKDIIGYQTAIEDWGVASLIDKFATLRELANLFTVQPELLESLTKEGHLADIGRDIIQSYISNREDFNHDNFINSVKLNFR
- Ratio (Deletedscore / WTscore) (bait LSB3): 0.4618

B6: YNL084C_1 (protein, UniProt P39013 1-349, looked up)
Actin cytoskeleton-regulatory …: MPKLEQFEIKKYWQIFSGLKPIENKVNHDQVLPILYNSKLDSSVLNKIWFLADIDDDDNLDFEEFVICMRLIFDMVNKNISSVPDELPDWLIPGSKVNLIKERKKRKQIENADLPPKKEIKVDWYMSPDDLNQYEKIYNSCAKLTDGTITFNELSTKLSTKFFNISKTDLNKVWSLINPQNLPSIDRDPTFYFIHCLRQRNDLGAEIPASLPNSLAEVCNKKQLSYDLRSSQPPTKRKEEANEVDNLRDNGQNSSSDSSGSNVLSNEDSIKQKYASLTDDQVANMREQLEGLLNYKKSEKTQGGSKLSKRINIRSITDDLDNIEQQVEVLENYLNNKRHELQALQAEIN
- Ratio (Deletedscore / WTscore) (bait LSB1): 0.7759
- Ratio (Deletedscore / WTscore) (bait LSB3): 0.8689
- Ratio (Deletedscore / WTscore) (bait MYO3): 0.5035
- Ratio (Deletedscore / WTscore) (bait MYO5): 0.7027

B7: YJL201W_1 (protein, UniProt P32525 1-599, looked up)
Protein ECM25: MIDINVNNIFFRSYSVDPNSGHAIYVFDSTYLPASDEIGDKQVYDLLINALMDRLVMKLPQAPYSLVIFSSGFSQRKISWVYGIKMFAKLPKETKFYLQKIFIVHESFFVRSVYQVISNAMNFNFLDSKDSQHDFPSLVHVLDLTSLSELIDITRLRISLNVYLYDYQIREHINVPEEYYNRLTPLAIRQYRQLVFDKIFKKLQNDALLCELIFQKPGNYKKVNIFLDIIKRNNYIDLSQWDIYSLASVWLNYFIKNKAKPLIPIELIPLPIVDDLKFTSETFRKIIKFNQYQDLFMVIIPFFNRIIAHGESTKHDSRTLSKALTPALCKEKLSMMTNDRLAIGSRYIKNLLDFFPEIAKEISSPPSSVSSSSTIPVLPKPRKSSPTRYSELGCLTLPRSRSPSPQRSVTSPTYTPVALQNTPVLKPKSSSRNVSSPSFNAKPPLPIKAVTRPQLSLTSNSNTDLALASSSTDTLSSPTKTPSADSLPLSNSSTDLTISDNIKEMVKDEPAKDKNSVETDIFVQQFESLTLVQNAKIKKFDKELQEKKKKNETTSKTADKFSQKGYSDIKASNKVSRLAALYEERLQGLQVMNEMKQRW
- Ratio (Deletedscore / WTscore) (bait LSB3): 0.8948
